Results taken from publication PMC9561270, “Phosphorylation of the auxin signaling transcriptional repressor IAA15 by MPKs is required for the suppression of root development under drought stress in Arabidopsis” (Nucleic Acids Research, 2022).

How the values were obtained:
His-MPK6 = molecular target: T1, His-MPK6 (Arabidopsis thaliana, UniProt Q39026 1-395); experiment: pull-down; 2 ug GST or GST-IAA15 on glutathione-Sepharose 4B beads; 1 ug His-MPK added, overnight at 4 C; 50 mM Tris-HCl pH 7.5, 200 mM NaCl, 1% Triton X-100, 0.1 mM EDTA, 0.5 mM DTT; detected with anti-His antibodies; details: both partners purified
T1 construct: also called His-fused MPK6; source: E. coli M15, purified (Ni-NTA agarose); not shown: His, N-terminal, kept

His-MPK3 = molecular target: T2, His-MPK3 (Arabidopsis thaliana, UniProt Q39023 1-370); experiment: as above; details: both partners purified
T2 construct: also called His-fused MPK3; source: E. coli M15, purified (Ni-NTA agarose); not shown: His, N-terminal, kept
T2 sequence (looked up): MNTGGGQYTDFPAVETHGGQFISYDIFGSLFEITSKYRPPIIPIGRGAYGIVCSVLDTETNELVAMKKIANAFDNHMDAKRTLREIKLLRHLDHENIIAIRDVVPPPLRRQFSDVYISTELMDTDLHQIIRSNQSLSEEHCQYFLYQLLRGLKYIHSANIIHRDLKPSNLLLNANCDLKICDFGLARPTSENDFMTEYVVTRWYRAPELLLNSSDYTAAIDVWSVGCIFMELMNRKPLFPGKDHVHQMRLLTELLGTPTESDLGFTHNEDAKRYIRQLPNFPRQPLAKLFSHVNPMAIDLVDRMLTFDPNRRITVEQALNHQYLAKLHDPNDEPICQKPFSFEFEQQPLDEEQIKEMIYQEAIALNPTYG

T1 sequence (Q39026 whole entry, the tested form may be a part): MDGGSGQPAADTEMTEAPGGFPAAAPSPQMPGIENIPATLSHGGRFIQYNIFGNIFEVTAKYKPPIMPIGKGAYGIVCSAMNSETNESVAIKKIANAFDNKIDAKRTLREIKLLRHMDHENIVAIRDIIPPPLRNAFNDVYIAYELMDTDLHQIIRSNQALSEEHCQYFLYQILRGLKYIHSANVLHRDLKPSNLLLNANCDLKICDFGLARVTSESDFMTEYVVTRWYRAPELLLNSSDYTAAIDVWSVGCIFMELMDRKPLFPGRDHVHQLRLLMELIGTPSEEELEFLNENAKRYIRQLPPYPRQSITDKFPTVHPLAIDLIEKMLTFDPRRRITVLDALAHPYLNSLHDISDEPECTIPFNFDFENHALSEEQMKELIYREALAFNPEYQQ

- binding result (His-MPK6): binds
- binding result (His-MPK3): binds
B1: GST-IAA15 (natural protein, Arabidopsis thaliana, UniProt Q9C966 1-179, looked up)
chain: MSPEEYVRVWPDSGDLGGTELTLALPGTPTNASEGPKKFGNKRRFLETVDLKLGEAHENNYISSMVTNDQLVGWPPVATARKTVRRKYVKVALDGAAYLRKVDLGMYDCYGQLFTALENMFQGIITICRVTELERKGEFVATYEDKDGDLMLVGDVPWMMFVESCKRMRLMKTGDAIGL
notes: Auxin-responsive protein IAA15, Arabidopsis thaliana, At1g80390, full length, cloned into pGEX-4T-1; also called GST-fused IAA15; GST-IAA15^WT; source: E. coli BL21 (DE3), purified (glutathione Sepharose-4B); not shown: GST, N-terminal, kept
